This experiment has as its target N-terminally GST-tagged human GBF1 (containing the Y828A mutation that confers BFA resistance) (human). The experiment in a line: negative staining electron microscopy; purified GST-GBF1 on glow-discharged carbon grids, washed with 20 mM Bis-Tris pH 7.0, 50 mM NaCl, 1 mM DTT, stained with 1% uranyl formate; 2D class averages from 81,522 particles, compared with AlphaFold-predicted monomers.

Stoichiometry N data for 1 substance are collected here from PMC10512945.

As for “N-terminally GST-tagged human GBF1 (containing the Y828A mutation that confers BFA resistance) (natural protein)”, the stoichiometry N was 2.

The stoichiometry N is the number of molecules, sites or subunits per partner or assembly.
